Here are results for four molecules from patent publication US20200362029A1 (IMMUNOGEN, published 2020).

For experiment [1], the target named is T1, human folate receptor alpha (FRα) on FRα-positive cells (KB, T47D, JHOS-4) (human, UniProt P15328 25-234).
T1 construct: Endogenous FRα on human tumour cell lines; also called FOLR1; folate receptor 1
The experiment is described as follows: competition FACS on FRα-positive T47D cells; Morrison antibody fixed at 0.8 nM, detected with anti-human FITC secondary; murine parental antibodies titrated (log axis -11 to -7, unit not given; text: 0.2 to 50 nM). Here is the method: These eight constructs were further polished using ceramic hydroxyapatite chromatography to greater than 95% purity and subjected to further characterization. To account for the effects of overall molecule conformation or potential structural changes of the scFv arms on the binding of the biparatopic arms, the binding efficiency of each arm of the eight Morrison's constructs was assayed by a competition FACS assay. Briefly, FRα-positive T47D cells were incubated with 0.8 nM of a Morrison's antibody mixed with a corresponding murine parental antibody at a range of concentrations, generally from 50 nM to 0.2 nM. After incubation on ice for 2 hours, cells were washed from unbound antibodies, and bound Morrison's antibody was detected with secondary anti-human FITC-labeled antibody. Reduced binding of the Morrison's antibody in the presence of increasing concentration of the parental antibody indicated an effect on binding of the second set of arms.

A further experiment has as its target recombinant FRα antigen (human, UniProt P15328 25-234). The experiment is described as follows: BLI (Octet96), IgG on anti-human- or anti-murine-Fc sensors, recombinant FRα in solution, 1:1 fit. As to the method: Table 10 summarizes the kinetic parameters of binding of Bin1 and Bin 2 antibodies with recombinant FRα antigen. KD values were obtained via biolayer interferometry performed on Octet96 system (Fortebio) essentially according to manufacturer's recommended procedure. Briefly, anti-human- or anti-murine −Fc sensors were presoaked in 1× Kinetic Buffer (Fortebio) for 10 min and incubated with 5 μg/mL of either Bin 1 or Bin 2 IgG for 5 min. The sensors were then sequentially moved to 1× Kinetic Buffer for 5 min to determine baseline, serial dilutions of antigen for association (10 min), and 1× Kinetic Buffer for dissociation (10 min). The raw data was collected, processed and fitted to a simple 1:1 binding model using Fortebio analysis software to determine the kinetic parameters Kon and Koff.

recombinant FRα antigen, sequence (P15328 25-234 limits assumed): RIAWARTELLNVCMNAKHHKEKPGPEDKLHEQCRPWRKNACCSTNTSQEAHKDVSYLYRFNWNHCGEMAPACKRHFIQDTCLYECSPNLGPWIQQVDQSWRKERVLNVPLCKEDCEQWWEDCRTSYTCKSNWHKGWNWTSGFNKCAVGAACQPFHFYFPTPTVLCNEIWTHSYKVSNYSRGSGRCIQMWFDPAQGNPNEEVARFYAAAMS
T1 sequence (P15328 25-234 limits assumed, stated change not applied): as the sequence (P15328 25-234 limits assumed) above

B1: FR57-G1-Mov19scFv1 (Molecule 2: FR57-IgG1-mov19scFv1) (bispecific antibody)
heavy: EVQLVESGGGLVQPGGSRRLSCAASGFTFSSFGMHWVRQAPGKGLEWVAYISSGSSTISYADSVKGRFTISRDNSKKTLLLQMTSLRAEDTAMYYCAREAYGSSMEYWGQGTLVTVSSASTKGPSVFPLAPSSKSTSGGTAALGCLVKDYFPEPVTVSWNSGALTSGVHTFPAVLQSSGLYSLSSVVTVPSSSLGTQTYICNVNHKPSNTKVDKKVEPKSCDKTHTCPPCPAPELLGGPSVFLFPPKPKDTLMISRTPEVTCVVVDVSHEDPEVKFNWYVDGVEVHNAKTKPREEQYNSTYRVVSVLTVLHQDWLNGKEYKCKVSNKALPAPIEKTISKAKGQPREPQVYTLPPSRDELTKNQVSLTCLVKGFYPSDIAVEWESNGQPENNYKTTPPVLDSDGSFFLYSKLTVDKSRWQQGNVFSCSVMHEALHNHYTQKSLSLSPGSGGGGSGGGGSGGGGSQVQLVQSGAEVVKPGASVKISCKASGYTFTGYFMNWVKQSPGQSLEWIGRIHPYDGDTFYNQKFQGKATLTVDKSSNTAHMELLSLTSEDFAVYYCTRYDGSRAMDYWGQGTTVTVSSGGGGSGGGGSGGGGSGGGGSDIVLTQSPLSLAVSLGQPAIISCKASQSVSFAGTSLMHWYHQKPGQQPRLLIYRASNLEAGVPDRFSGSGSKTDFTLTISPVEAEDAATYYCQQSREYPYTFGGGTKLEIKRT
light: EIVLTQSPATLSVTPGDRVSLSCRASQNINNNLHWYQQKPGQSPRLLIKYVSQSVSGIPDRFSGSGSGTDFTLSISSVEPEDFGMYFCQQSNSWPHYTFGQGTKLEIKRTVAAPSVFIFPPSDEQLKSGTASVVCLLNNFYPREAKVQWKVDNALQSGNSQESVTEQDSKDSTYSLSSTLTLSKADYEKHKVYACEVTHQGLSSPVTKSFNRGEC
notes: Tetravalent Morrison format with the Mov19 scFv on the C-terminus of the FR57 IgG1 heavy chain; also called FR57:Mov19scFv; FR57-M9346AscFv
As for B1, the binding result in experiment [1] is “binds”.

B2: huMov19 (M9346A) antibody (antibody, V domains shown)
VH: QVQLVQSGAEVVKPGASVKISCKASGYTFTGYFMNWVKQSPGQSLEWIGRIHPYDGDTFYNQKFQGKATLTVDKSSNTAHMELLSLTSEDFAVYYCTRYDGSRAMDYWGQGTTVTVSS
VL: DIVLTQSPLSLAVSLGQPAIISCKASQSVSFAGTSLMHWYHQKPGQQPRLLIYRASNLEAGVPDRFSGSGSKTDFTLTISPVEAEDAATYYCQQSREYPYTFGGGTKLEIKR
notes: Humanized IgG1/kappa; also called huM9346A; huM9346A-biotin
A word on the Kd: it is the free concentration of one partner at which half of the binding sites on the other are occupied at equilibrium, for simple one-to-one binding. One may read the koff as a measure of how fast the partners let go of each other. As a reminder, the kon is the rate constant with which the complex forms. Regarding B2, in the experiment with recombinant FRα antigen, the Kd was 0.6 nM, the koff is 0.0003 s⁻¹ and the kon was determined as 500000 M⁻¹ s⁻¹.

B3: FR57 antibody (antibody, V domains shown)
VH: EVQLVESGGGLVQPGGSRRLSCAASGFTFSSFGMHWVRQAPGKGLEWVAYISSGSSTISYADSVKGRFTISRDNSKKTLLLQMTSLRAEDTAMYYCAREAYGSSMEYWGQGTLVTVSS
VL: EIVLTQSPATLSVTPGDRVSLSCRASQNINNNLHWYQQKPGQSPRLLIKYVSQSVSGIPDRFSGSGSGTDFTLSISSVEPEDFGMYFCQQSNSWPHYTFGQGTKLEIK
notes: Tested as an IgG; Only the variable domains are tied to the stand-alone antibody; also called huFR57; FR1-57
In the case of B3, in the experiment with recombinant FRα antigen, the Kd was 1 nM, the koff was 0.0004 s⁻¹ and the association rate constant (kon) was 300000 M⁻¹ s⁻¹.

B4: Mov19-G1-FR57scFv1 (Molecule-1: mov19-IgG1-FR57scFv1) (bispecific antibody)
heavy: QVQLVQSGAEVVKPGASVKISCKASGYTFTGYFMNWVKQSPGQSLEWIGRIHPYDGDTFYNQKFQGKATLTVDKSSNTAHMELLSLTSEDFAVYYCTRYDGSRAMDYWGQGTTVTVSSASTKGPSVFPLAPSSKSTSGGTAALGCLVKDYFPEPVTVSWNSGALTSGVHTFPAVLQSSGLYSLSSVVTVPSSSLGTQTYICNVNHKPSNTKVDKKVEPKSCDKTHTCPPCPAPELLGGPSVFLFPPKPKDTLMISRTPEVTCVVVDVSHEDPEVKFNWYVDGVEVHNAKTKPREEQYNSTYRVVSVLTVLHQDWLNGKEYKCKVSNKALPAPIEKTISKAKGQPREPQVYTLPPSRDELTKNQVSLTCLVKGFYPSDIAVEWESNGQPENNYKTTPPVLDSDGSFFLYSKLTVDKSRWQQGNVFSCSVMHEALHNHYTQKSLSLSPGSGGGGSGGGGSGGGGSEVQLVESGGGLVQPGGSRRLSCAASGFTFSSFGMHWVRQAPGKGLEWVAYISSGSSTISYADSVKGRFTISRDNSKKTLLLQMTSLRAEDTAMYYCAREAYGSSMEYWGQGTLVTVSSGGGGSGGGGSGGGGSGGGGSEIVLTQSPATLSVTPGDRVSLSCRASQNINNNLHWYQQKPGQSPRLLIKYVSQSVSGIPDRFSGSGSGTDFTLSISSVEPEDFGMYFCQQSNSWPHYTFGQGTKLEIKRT
light: DIVLTQSPLSLAVSLGQPAIISCKASQSVSFAGTSLMHWYHQKPGQQPRLLIYRASNLEAGVPDRFSGSGSKTDFTLTISPVEAEDAATYYCQQSREYPYTFGGGTKLEIKRTVAAPSVFIFPPSDEQLKSGTASVVCLLNNFYPREAKVQWKVDNALQSGNSQESVTEQDSKDSTYSLSSTLTLSKADYEKHKVYACEVTHQGLSSPVTKSFNRGEC
notes: Tetravalent Morrison format with the FR57 scFv on the C-terminus of the Mov19 IgG1 heavy chain; also called Mov19:FR57scFv; M9346A-FR57scFv
Take B4: the binding result in experiment [1] was “binds”.
